Results on 5 molecules are retold here after paper PMC10530651, “Mechanisms of Regulation of the CHRDL1 Gene by the TWIST2 and ADD1/SREBP1c Transcription Factors”.

Data set [1] addresses T1, ADD1/SREBP1c (rat, UniProt P56720-1 1-403).
T1 sequence: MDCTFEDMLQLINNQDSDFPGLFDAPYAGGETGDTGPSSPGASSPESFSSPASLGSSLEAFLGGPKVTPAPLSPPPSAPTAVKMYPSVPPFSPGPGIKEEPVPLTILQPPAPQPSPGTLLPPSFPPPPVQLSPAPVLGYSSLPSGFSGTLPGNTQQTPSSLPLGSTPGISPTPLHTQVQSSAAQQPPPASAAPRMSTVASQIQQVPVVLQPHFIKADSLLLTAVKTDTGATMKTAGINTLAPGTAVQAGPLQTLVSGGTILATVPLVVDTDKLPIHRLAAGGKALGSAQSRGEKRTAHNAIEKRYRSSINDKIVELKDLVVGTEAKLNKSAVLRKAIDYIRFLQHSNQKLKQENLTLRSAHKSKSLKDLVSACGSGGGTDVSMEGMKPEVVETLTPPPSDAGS
As to the kind of experiment: EMSA; EMSA: 20 mM HEPES pH 7.9, 60 mM KCl, 1 mM MgCl2, 0.5 mM DTT, 10% glycerol, 10 µL with 1-3 µL TnT lysate; competitor at least 50x molar excess; 6% native gel, 0.5X TBE, 4 °C; binding temperature not stated. The conditions noted are these: protein: ivt; tags: C-terminal Myc/His; chain copies: 2; label: 32P as probe; blunt. A general note: A gel shift assay detects complexes by their altered migration in electrophoresis.

Data set [2] addresses T2, TWIST2 (Homo sapiens, UniProt Q8WVJ9 1-160).
T2 sequence: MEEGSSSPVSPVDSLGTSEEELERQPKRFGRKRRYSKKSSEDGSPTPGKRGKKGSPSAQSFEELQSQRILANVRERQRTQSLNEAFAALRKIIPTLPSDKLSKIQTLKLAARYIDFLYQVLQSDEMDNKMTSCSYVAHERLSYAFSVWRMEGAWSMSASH
The data set is described as above. Conditions: protein: ivt; tags: N-terminal Myc; chain copies: 2; label: 32P as probe; blunt.

Data set [3] has as its target T1, ADD1/SREBP1c. As to the kind of experiment: competition; vs labeled CH2700EA; EMSA: 20 mM HEPES pH 7.9, 60 mM KCl, 1 mM MgCl2, 0.5 mM DTT, 10% glycerol, 10 µL with 1-3 µL TnT lysate; competitor at least 50x molar excess; 6% native gel, 0.5X TBE, 4 °C; binding temperature not stated. The conditions noted are these: protein: ivt; tags: C-terminal Myc/His; chain copies: 2; blunt.

Data set [4] concerns the target T2, TWIST2. The data set is described as above. The conditions noted are these: protein: ivt; tags: N-terminal Myc; chain copies: 2; blunt.
The target of data set [5] is T2, TWIST2. As to the kind of experiment: competition; vs labeled probe #5; EMSA: 20 mM HEPES pH 7.9, 60 mM KCl, 1 mM MgCl2, 0.5 mM DTT, 10% glycerol, 10 µL with 1-3 µL TnT lysate; competitor at least 50x molar excess; 6% native gel, 0.5X TBE, 4 °C; binding temperature not stated. Conditions: protein: ivt; tags: N-terminal Myc; chain copies: 2; blunt.
Data set [6] has as its target T3, TWIST1 (Homo sapiens, UniProt Q15672 1-202). Described as above. The conditions noted are these: protein: ivt; tags: Myc; chain copies: 2; blunt.
Data set [7] addresses T3, TWIST1. The experiment in a line: EMSA; EMSA: 20 mM HEPES pH 7.9, 60 mM KCl, 1 mM MgCl2, 0.5 mM DTT, 10% glycerol, 10 µL with 1-3 µL TnT lysate; competitor at least 50x molar excess; 6% native gel, 0.5X TBE, 4 °C; binding temperature not stated. Conditions: protein: ivt; tags: Myc; chain copies: 2; label: 32P as probe; blunt.
Data set [8] has as its target T1, ADD1/SREBP1c. The experiment in a line: EMSA; competition; EMSA: 20 mM HEPES pH 7.9, 60 mM KCl, 1 mM MgCl2, 0.5 mM DTT, 10% glycerol, 10 µL with 1-3 µL TnT lysate; competitor at least 50x molar excess; 6% native gel, 0.5X TBE, 4 °C; binding temperature not stated. The conditions noted are these: protein: ivt; tags: C-terminal Myc/His; chain copies: 2; label: 32P as probe; blunt.

Data set [9] addresses T2, TWIST2. The description is as above. The conditions noted are these: protein: ivt; tags: N-terminal Myc; chain copies: 2; label: 32P as probe; blunt.

B1: CH2700EA (dsDNA)
DNA 1: TGGTGGTGGTCACATGAATATACACATGCGATAAAATT
DNA 2: AATTTTATCGCATGTGTATATTCATGTGACCACCACCA
On to B1, for which the binding result with ADD1/SREBP1c [1] and with TWIST2 [2] was “binds” each time.

B2: CH2700EWAM (dsDNA)
DNA 1: TGGTGGTGGTCACATGAATATACGCACGCGATAAAATT
DNA 2: AATTTTATCGCGTGCGTATATTCATGTGACCACCACCA
Take B2: in the data set with ADD1/SREBP1c [3], the binding result is on record as “binds”.

B3: CH2700EMAW (dsDNA)
DNA 1: TGGTGGTGGTCGCACGAATATACACATGCGATAAAATT
DNA 2: AATTTTATCGCATGTGTATATTCGTGCGACCACCACCA
Consider B3, for which the binding result with ADD1/SREBP1c [3] and with TWIST2 [4] was “binds” throughout.

B4: SP1 oligo (dsDNA)
DNA 1: ATTCGATCGGGGCGGGGCGAGC
DNA 2: GCTCGCCCCGCCCCGATCGAAT
Take B4: the binding result with TWIST2 [5] and with TWIST1 [6] was “no binding” each time.

B5: CH2600TWI (dsDNA)
DNA 1: TATATACACAGGCAAATGAGTGCATATAAA
DNA 2: TTTATATGCACTCATTTGCCTGTGTATATA
With B5, the binding result with TWIST1 [7], with ADD1/SREBP1c [8] and with TWIST2 [9] was “no binding” each time.
